B1: α-CT coiled-coil domain fused with HIS tag (α-CT-His), fluorescently labeled (domain or fragment)
chain: INMKKREAVFSDSRKLQGEVDKLKEQILKAKETSTEAEPSSEVLNEMIEKLKSEIDDEYTEAAIAVGLEERLTAMREEFSKASSEEHLMHPVLIEKIEKLKEEFNTRLTDAPNYESLKSKLNMLRDFSRAKAASEATSLKKEINKRFQEAVDRPEIREKVEAIKAEVASSGASSFDELPDALKEKVLKTKGEVEAEMAGVLKSMGLELDAVKQNQKDTAEQIYAANENLQEKLEKLNQEITSKIEEVVRTPEIKSMVELLKVETAKASKTPGVTEAYQKIEALEQQIKQKIAEALNTSGLQEKQDELEKELAAARELAAEESDGSVKEDDDDDEDSSESGKSEMVNPSFA
modifications: fluorescently labeled using His-tag labeling kit (NanoTemper, MO-L008)
B2: coiled-coil domain of CTI1 fused with HIS tag (domain or fragment)
chain: PQISKAIAGADRKDLMRKLPKFIYDEEKALEKTRKVLAEKIAQLNSAIDDVSSQLKSEDTPNGAALSTDEIEATA

Key:
[1] = molecular target: coiled-coil domain of CTI3 fused with HIS tag (Arabidopsis thaliana); assay: MST
[2] = molecular target: B1; assay: MST

Row | Kd [1] [nM] | Kd [2] [nM] | Binder
1 | 114 | – | B1
2 | – | 14.8 | B2

Source: paper PMC7712654 (2020)
